For assay [1], the target named is full-length MyD88 fused to GFP at the N-terminus (human) (UniProt Q99836). Kind of assay: photon counting histogram.
Assay [2] has the same target. Kind of assay: single-molecule fluorescence brightness analysis.

As to “full-length MyD88 fused to GFP at the N-terminus (from UniProt Q99836 1-296) (natural protein)”, the stoichiometry N in assay [1] was more than 100 proteins. Also, in assay [2], the Kd was found to be 120 nM and the stoichiometry N was more than 80 GFP.

The values above are taken from publication doi:10.1101/351726.
